Results: patent publication US20210371506A1 (JIANGSU HENGRUI MEDICINE, published 2021)

Tests used:
Aβ1-42 fibrils [1] = biological target: T1, Aβ1-42 fibrils (human); assay: SPR, Biacore T200; Aβ1-42 fibrils amine-coupled to CM5 chip, antibody flowed over
T1 construct: Synthetic Aβ1-42 polypeptide (GL Biochem) made into fibrils in vitro (DMSO, diluted in water, 37 °C for 10 days); In the phagocytosis assays the fibrils were fluorescence (FITC) labeled; also called Aβ fibrils; Abeta fibrils
Method: (§1) The affinity of an antibody to Aβ1-42 fibrils was detected by the method of amino coupling. Aβ1-42 fibrils was coupled to CM5 biosensing chip (200 RU), and then the antibody molecules were allowed to flow through the surface of the chip. The reaction signals were detected in real time with Biacore T200 instrument to generate a binding and dissociation curve. At the end of each experimental cycle, after the dissociation was completed, the biosensor chip was washed and regenerated with 10 mM Glycine-HCl (pH 1.5). The positive antibody, Aducanumab, was prepared according to the sequence information about Aducanumab released by WHO (see WHO Drug Information, Vol. 28, No. 3, 2014), and the preparation method was described in Example 4 of the present disclosure.

Aβ1-42 monomer [2] = biological target: T2, Aβ1-42 monomer (human); assay: SPR, Biacore T200; IgG captured on Protein A chip, Aβ1-42 monomer flowed over
T2 construct: Synthetic peptide: Sigma A9810 dissolved in DMSO for Biacore; GenScript RP10017 in NaOH/PBS for the ThT assay; also called human Aβ1-42
T2 sequence (peptide, as listed by the source): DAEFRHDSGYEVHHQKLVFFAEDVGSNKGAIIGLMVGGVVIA
Method: (§2) The affinity of an antibody to Aβ1-42 monomer was detected by capturing antibody on the chip. IgG was affinity-captured onto Protein A biosensing chip, and then the antigen […] monomer was allowed to flow through the surface of the chip. The reaction signals were detected in real time with Biacore T200 instrument to generate a binding and dissociation curve. At the end of each experimental cycle, after the dissociation was completed, the biosensor chip was washed and regenerated with 10 mM Glycine-HCl (pH1.5).

Aβ1-42 monomer [3] = biological target: T2, Aβ1-42 monomer; assay: cell-based or functional assay
Aβ1-42 monomer [4] = biological target: T2, Aβ1-42 monomer; assay: SPR, Biacore T200; IgG on Protein A chip, Aβ1-42 monomer as analyte; reference Aducanumab
Method: as §2

Aβ1-42 fibrils [5] = biological target: T1, Aβ1-42 fibrils; assay: SPR, Biacore T200; Aβ1-42 fibrils on CM5 chip; reference Aducanumab
Method: as §1

T1 sequence (peptide, as listed by the source): as above

Row | Kd (Aβ1-42 fibrils [1]) | Kd (Aβ1-42 monomer [2]) | IC50 (read off the curve) (Aβ1-42 monomer [3]) | affinity relative to Aducanumab (Aβ1-42 monomer [4]) | affinity relative to Aducanumab (Aβ1-42 fibrils [5]) | Binder
1 | 1.22 nM | 333 nM | ~0.8 µM |  |  | HAB-5101 (antibody, human IgG1, kappa, V domains shown) VH: QVTLKESGPALVKPTQTLTLTCTFSGFSLSTSGMGVSWIRQPPGKALEWLAHIYWDDVSLYNPSLKSRLTISKDTSKNQVVLTMTNMDPVDTATYYCARRRIITVVDAMDYWGQGTTVTVSS VL: DVVMTQTPLSLPVTPGEPASISCRSSQSIVHSNGNTYLEWYLQKPGQSPKLLIYKVSNRFSGVPDRFSGSGSGTDFTLKISRVEAEDVGVYYCSQGSRVPPTFGGGTKVEIKR
2 | 0.213 nM | 27.9 nM |  | 2 orders of magnitude | 2 orders of magnitude | HAB-9001 (antibody, human IgG1, kappa, V domains shown) VH: QVTLKESGPALVKPTQTLTLTCTFSGFSLSTFGMGVGWIRQPPGKALEWLAHIWWDDNKYYNPALKSRLTISKDTSKNQVVLTMTNMDPVDTATYYCARRGFHLGSRGDYFDHWGQGTTVTVSS VL: DVVMTQTPLSLPVTPGEPASISCRSSQSIVHSNGNTYLEWYLQKPGQSPQLLIYKVSNRFSGVPDRFSGSGSGTDFTLKISRVEAEDVGVYYCFQGSRVPLTFGQGTKLEIKR
3 | 11.7 nM | 229 nM |  |  |  | HAB-2401 (antibody, human IgG1, kappa, V domains shown) VH: EVQLVQSGAEVKKPGASVKVSCKVSGYTLTNTYMHWVRQAPGKGLEWMGRIDPTNGNTKYAPKFKDRVTMTADTSTDTAYMELSSLRSEDTAVYYCARRVYYYDSTYNYWGKGTTVTVSS VL: DIQMTQSPSSLSASVGDRVTITCKSSQSLLNSGNQKNYLTWYQQKPGKVPKLLIYWASTRESGVPSRFSGSGSGTDFTLTISSLQPEDVATYYCQNDYNYPLTFGGGTKVEIKR
